Results as given in US20240109972A1, “ANTIBODY AND TAXANE COMBINATION THERAPY” (Genmab A/S, priority 2020, published 2024).

Experiment: GEN1046 in combination with docetaxel in metastatic NSCLC subjects, adverse effects
Format: in vivo, human
Experimental: Docetaxel was administered at a dose of 55 mg/m^2 or 75 mg/m^2 depending on the number of prior Dose Limiting Toxicities observed. The maximum tested dose of docetaxel was be 75 mg/m^2.
Subjects with a histological or cytological diagnosis of non-squamous NSCLC must not have an EGFR-sensitizing mutation and/or ALK translocation/ROS1 rearrangement. EGFR sensitizing mutations are those mutations that are amenable to treatment with an approved TKI. Documentation of EGFR and ALK status should be available per local assessment.

GEN1046: PD-L1×4-1BB bispecific antibody: PD-L1-547-FEAL combined with CD137-009-HC7LC2-FEAR (SEQ ID NOs: 1, 5, 21, 19; 8, 12, 22, 20)
Tolerability of the combination (GEN1046 100 mg with Docetaxel 55 or 75 mg/m^2): manageable and well tolerated | Alopecia Grade 1, GEN1046-related (GEN1046 + 55 mg/m^2 Docetaxel): 1 | Alopecia Grade 2, GEN1046-related (GEN1046 + 55 mg/m^2 Docetaxel): 0 | Alopecia Grade 3, GEN1046-related (GEN1046 + 55 mg/m^2 Docetaxel): 0 | Alopecia Grade 4, GEN1046-related (GEN1046 + 55 mg/m^2 Docetaxel): 0 | Alopecia Grade 5, GEN1046-related (GEN1046 + 55 mg/m^2 Docetaxel): 0 | Anemia Grade 1, GEN1046-related (GEN1046 + 55 mg/m^2 Docetaxel): 0 | Anemia Grade 2, GEN1046-related (GEN1046 + 55 mg/m^2 Docetaxel): 0 | Anemia Grade 3, GEN1046-related (GEN1046 + 55 mg/m^2 Docetaxel): 3 | Anemia Grade 4, GEN1046-related (GEN1046 + 55 mg/m^2 Docetaxel): 0 | Anemia Grade 5, GEN1046-related (GEN1046 + 55 mg/m^2 Docetaxel): 0 | Blood alkaline phosphatase increase Grade 1, GEN1046-related (GEN1046 + 55 mg/m^2 Docetaxel): 0 | Blood alkaline phosphatase increase Grade 2, GEN1046-related (GEN1046 + 55 mg/m^2 Docetaxel): 1 | Blood alkaline phosphatase increase Grade 3, GEN1046-related (GEN1046 + 55 mg/m^2 Docetaxel): 0 | Blood alkaline phosphatase increase Grade 4, GEN1046-related (GEN1046 + 55 mg/m^2 Docetaxel): 0 | Blood alkaline phosphatase increase Grade 5, GEN1046-related (GEN1046 + 55 mg/m^2 Docetaxel): 0 | Decreased appetite Grade 1, GEN1046-related (GEN1046 + 55 mg/m^2 Docetaxel): 0 | Decreased appetite Grade 2, GEN1046-related (GEN1046 + 55 mg/m^2 Docetaxel): 1 | Decreased appetite Grade 3, GEN1046-related (GEN1046 + 55 mg/m^2 Docetaxel): 0 | Decreased appetite Grade 4, GEN1046-related (GEN1046 + 55 mg/m^2 Docetaxel): 0 | Decreased appetite Grade 5, GEN1046-related (GEN1046 + 55 mg/m^2 Docetaxel): 0 | Dyspnea Grade 1, GEN1046-related (GEN1046 + 55 mg/m^2 Docetaxel): 0 | Dyspnea Grade 2, GEN1046-related (GEN1046 + 55 mg/m^2 Docetaxel): 1 | Dyspnea Grade 3, GEN1046-related (GEN1046 + 55 mg/m^2 Docetaxel): 0 | Dyspnea Grade 4, GEN1046-related (GEN1046 + 55 mg/m^2 Docetaxel): 0 | Dyspnea Grade 5, GEN1046-related (GEN1046 + 55 mg/m^2 Docetaxel): 0 | Fatigue Grade 1, GEN1046-related (GEN1046 + 55 mg/m^2 Docetaxel): 0 | Fatigue Grade 2, GEN1046-related (GEN1046 + 55 mg/m^2 Docetaxel): 2 | Fatigue Grade 3, GEN1046-related (GEN1046 + 55 mg/m^2 Docetaxel): 1 | Fatigue Grade 4, GEN1046-related (GEN1046 + 55 mg/m^2 Docetaxel): 0 | Fatigue Grade 5, GEN1046-related (GEN1046 + 55 mg/m^2 Docetaxel): 0 | Hypokalemia Grade 1, GEN1046-related (GEN1046 + 55 mg/m^2 Docetaxel): 0 | Hypokalemia Grade 2, GEN1046-related (GEN1046 + 55 mg/m^2 Docetaxel): 1 | Hypokalemia Grade 3, GEN1046-related (GEN1046 + 55 mg/m^2 Docetaxel): 0 | Hypokalemia Grade 4, GEN1046-related (GEN1046 + 55 mg/m^2 Docetaxel): 0 | Hypokalemia Grade 5, GEN1046-related (GEN1046 + 55 mg/m^2 Docetaxel): 0 | Hypomagnesaemia Grade 1, GEN1046-related (GEN1046 + 55 mg/m^2 Docetaxel): 1 | Hypomagnesaemia Grade 2, GEN1046-related (GEN1046 + 55 mg/m^2 Docetaxel): 0 | Hypomagnesaemia Grade 3, GEN1046-related (GEN1046 + 55 mg/m^2 Docetaxel): 0 | Hypomagnesaemia Grade 4, GEN1046-related (GEN1046 + 55 mg/m^2 Docetaxel): 0 | Hypomagnesaemia Grade 5, GEN1046-related (GEN1046 + 55 mg/m^2 Docetaxel): 0 | Nausea Grade 1, GEN1046-related (GEN1046 + 55 mg/m^2 Docetaxel): 1 | Nausea Grade 2, GEN1046-related (GEN1046 + 55 mg/m^2 Docetaxel): 0 | Nausea Grade 3, GEN1046-related (GEN1046 + 55 mg/m^2 Docetaxel): 0 | Nausea Grade 4, GEN1046-related (GEN1046 + 55 mg/m^2 Docetaxel): 0 | Nausea Grade 5, GEN1046-related (GEN1046 + 55 mg/m^2 Docetaxel): 0 | Neutrophil count decreased Grade 1, GEN1046-related (GEN1046 + 55 mg/m^2 Docetaxel): 0 | Neutrophil count decreased Grade 2, GEN1046-related (GEN1046 + 55 mg/m^2 Docetaxel): 0 | Neutrophil count decreased Grade 3, GEN1046-related (GEN1046 + 55 mg/m^2 Docetaxel): 1 | Neutrophil count decreased Grade 4, GEN1046-related (GEN1046 + 55 mg/m^2 Docetaxel): 0 | Neutrophil count decreased Grade 5, GEN1046-related (GEN1046 + 55 mg/m^2 Docetaxel): 0 | Pyrexia Grade 1, GEN1046-related (GEN1046 + 55 mg/m^2 Docetaxel): 1 | Pyrexia Grade 2, GEN1046-related (GEN1046 + 55 mg/m^2 Docetaxel): 0 | Pyrexia Grade 3, GEN1046-related (GEN1046 + 55 mg/m^2 Docetaxel): 0 | Pyrexia Grade 4, GEN1046-related (GEN1046 + 55 mg/m^2 Docetaxel): 0 | Pyrexia Grade 5, GEN1046-related (GEN1046 + 55 mg/m^2 Docetaxel): 0 | Sinus tachycardia Grade 1, GEN1046-related (GEN1046 + 55 mg/m^2 Docetaxel): 0 | Sinus tachycardia Grade 2, GEN1046-related (GEN1046 + 55 mg/m^2 Docetaxel): 1 | Sinus tachycardia Grade 3, GEN1046-related (GEN1046 + 55 mg/m^2 Docetaxel): 0 | Sinus tachycardia Grade 4, GEN1046-related (GEN1046 + 55 mg/m^2 Docetaxel): 0 | Sinus tachycardia Grade 5, GEN1046-related (GEN1046 + 55 mg/m^2 Docetaxel): 0 | Total treated subjects with related TEAEs Grade 1, GEN1046-related (GEN1046 + 55 mg/m^2 Docetaxel): 4 | Total treated subjects with related TEAEs Grade 2, GEN1046-related (GEN1046 + 55 mg/m^2 Docetaxel): 4 | Total treated subjects with related TEAEs Grade 3, GEN1046-related (GEN1046 + 55 mg/m^2 Docetaxel): 3 | Total treated subjects with related TEAEs Grade 4, GEN1046-related (GEN1046 + 55 mg/m^2 Docetaxel): 0 | Total treated subjects with related TEAEs Grade 5, GEN1046-related (GEN1046 + 55 mg/m^2 Docetaxel): 0 | Vaginal hemorrhage Grade 1, GEN1046-related (GEN1046 + 55 mg/m^2 Docetaxel): 1 | Vaginal hemorrhage Grade 2, GEN1046-related (GEN1046 + 55 mg/m^2 Docetaxel): 0 | Vaginal hemorrhage Grade 3, GEN1046-related (GEN1046 + 55 mg/m^2 Docetaxel): 0 | Vaginal hemorrhage Grade 4, GEN1046-related (GEN1046 + 55 mg/m^2 Docetaxel): 0 | Vaginal hemorrhage Grade 5, GEN1046-related (GEN1046 + 55 mg/m^2 Docetaxel): 0 | Vomiting Grade 1, GEN1046-related (GEN1046 + 55 mg/m^2 Docetaxel): 0 | Vomiting Grade 2, GEN1046-related (GEN1046 + 55 mg/m^2 Docetaxel): 1 | Vomiting Grade 3, GEN1046-related (GEN1046 + 55 mg/m^2 Docetaxel): 0 | Vomiting Grade 4, GEN1046-related (GEN1046 + 55 mg/m^2 Docetaxel): 0 | Vomiting Grade 5, GEN1046-related (GEN1046 + 55 mg/m^2 Docetaxel): 0 | Amylase increased Grade 1, GEN1046-related (GEN1046 + 75 mg/m^2 Docetaxel): 1 | Amylase increased Grade 2, GEN1046-related (GEN1046 + 75 mg/m^2 Docetaxel): 0 | Amylase increased Grade 3, GEN1046-related (GEN1046 + 75 mg/m^2 Docetaxel): 0 | Amylase increased Grade 4, GEN1046-related (GEN1046 + 75 mg/m^2 Docetaxel): 0 | Amylase increased Grade 5, GEN1046-related (GEN1046 + 75 mg/m^2 Docetaxel): 0 | Anemia Grade 1, GEN1046-related (GEN1046 + 75 mg/m^2 Docetaxel): 0 | Anemia Grade 2, GEN1046-related (GEN1046 + 75 mg/m^2 Docetaxel): 1 | Anemia Grade 3, GEN1046-related (GEN1046 + 75 mg/m^2 Docetaxel): 0 | Anemia Grade 4, GEN1046-related (GEN1046 + 75 mg/m^2 Docetaxel): 0
